Measurements published in US20220372155A1 (LYVGEN BIOPHARMA, published 2022).
Residue numbers refer to the chain shown, from its start.

B1: TM553 (antibody, human IgG2, kappa)
heavy: QVQLVESGGGLVQPGGSLKLSCATSGFNFNDSFMNWVRQASGKGLEWVGQIRNKNYNYATYYTESLEGRVTISRDDSKNTAYLQMNSLKTEDTAVYYCTSYYYDGFADYFDYWGQGTTVTVSSASTKGPSVFPLAPCSRSTSESTAALGCLVKDYFPEPVTVSWNSGALTSGVHTFPAVLQSSGLYSLSSVVTVPSSNFGTQTYTCNVDHKPSNTKVDKTVERKCCVECPPCPAPPVAGPSVFLFPPKPKDTLMISRTPEVTCVVVDVSHEDPEVQFNWYVDGVEVHNAKTKPREEQFNSTFRVVSVLTVVHQDWLNGKEYKCKVSNKGLPAPIEKTISKTKGQPREPQVYTLPPSREEMTKNQVSLTCLVKGFYPSDIAVEWESNGQPENNYKTTPPMLDSDGSFFLYSKLTVDKSRWQQGNVFSCSVMHEALHNHYTQKSLSLSPG
light: DIQMTQSPSSLSASVGDRVTITCKASQNIYIYLNWYQQKPGKAPKLLIYNTNNLQTGVPSRFSGSGSGTDFTLTISSLQPEDFATYYCLQHSSRRTFGGGTKVEIKRTVAAPSVFIFPPSDEQLKSGTASVVCLLNNFYPREAKVQWKVDNALQSGNSQESVTEQDSKDSTYSLSSTLTLSKADYEKHKVYACEVTHQGLSSPVTKSFNRGEC
notes: VH-2/IgG2, VL-1/kappa
B2: LP3773 (antibody, human IgG1, kappa)
heavy: QVQLVESGGGLVQPGGSLKLSCATSGFNFNDSFMNWVRQASGKGLEWVGQIRNKNYNYATYYTESLEGRVTISRDDSKNTAYLQMNSLKTEDTAVYYCTSYYYDGFADYFDYWGQGTTVTVSSASTKGPSVFPLAPSSKSTSGGTAALGCLVKDYFPEPVTVSWNSGALTSGVHTFPAVLQSSGLYSLSSVVTVPSSSLGTQTYICNVNHKPSNTKVDKKVEPKSCDKTHTCPPCPAPELLGPSVFLFPPKPKDTLMISRTPEVTCVVVDVEHEDPEVKFNWYVDGVEVHNAKTKPREEQYNSTYRVVSVLTVLHQDWLNGKEYKCKVSNKALPAPIEKTISKAKGQPREPQVYTLPPSREEMTKNQVSLTCLVKGFYPSDIAVEWESNGQPENNYKTTPPVLDSDGSFFLYSKLTVDKSRWQQGNVFSCSVMHEALHNHYTQKSLSLSPG
light: B1 light
notes: VH-2/IgG1mut, VL-1/kappa
B3: TM550 (antibody, human IgG2, kappa, V domains shown)
VH: EVQLVESGGGLVQPGGSLKLSCAASGFNFNDSFMNWVRQASGKGLEWVGQIRNKNYNYATYYTESLEGRFTISRDDSKNTAYLQMNSLKTEDTAVYYCTRYYYDGFADYFDYWGQGTTVTVSS
VL: DIQMTQSPSSLSASVGDRVTITCKASQNIYIYLNWYQQKPGKAPKLLIYNTNNLQTGVPSRFSGSGSGTDFTLTISSLQPEDFATYYCLQHSSRRTFGGGTKVEIKR
notes: CDR grafted humanized LYV377
B4: TM738 (antibody, human IgG1, kappa, V domains shown)
VH: B3 VH with E1Q, A24T, N30Q, F70V, R100S
VL: B3 VL
notes: VH-2Q/IgG1mut, VL-1/kappa
B5: Ly181 (antibody, human IgG2, kappa)
heavy: B1 heavy with S32Y
light: B1 light
notes: VH-2Y/IgG2, VL-1/kappa
B6: TM739 (antibody, human IgG1, kappa, V domains shown)
VH: B3 VH with E1Q, A24T, S32A, F70V, R100S
VL: B3 VL
notes: VH-2A/IgG1mut, VL-1/kappa

These binders were tested against T1, human CD40 expressed on CHO cells (human, UniProt P25942 21-277) (assay: FACS, CHO cells).
T1 construct: whole, on cells; also used for the reporter cells over-expressing human CD40; also called cellular CD40; CHO-CD40 cells
T1 sequence (P25942 21-277): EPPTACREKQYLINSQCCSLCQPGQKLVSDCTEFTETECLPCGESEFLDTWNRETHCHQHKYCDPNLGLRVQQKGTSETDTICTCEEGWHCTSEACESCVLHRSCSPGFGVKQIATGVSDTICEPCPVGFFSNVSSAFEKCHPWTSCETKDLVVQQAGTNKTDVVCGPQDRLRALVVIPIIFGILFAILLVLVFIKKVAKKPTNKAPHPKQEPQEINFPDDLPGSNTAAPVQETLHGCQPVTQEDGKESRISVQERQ
B1: binds. B2: binds. B3: binds. B4: binds. B5: binds. B6: binds.
